According to US20230355708A1 (DREXEL UNIVERSITY, published 2023):

Molecular target: SARS-CoV-2 spike S2 subunit (SARS-CoV-2, UniProt P0DTC2 686-1213)
Assay: SPR, S2 anchored on low dextran chip, CVN injected at increasing concentrations

B1: Cyanovirin-N (CV-N) (other)
chain: LGKFSQTCYNSAIQGSVLTSTCERTNGGYNTSSIDLNSVIENVDGSLKWQPSNFIETCRNTQLAGSSELAAECKTRAQQFVSTKINLDDHIANIDGTLKYE
B1: binds.
